Where “and” joins values, the source holds several entries; their conditions need not be identical. Equal entries are not always repeated.
Legend:
[1] = target: DtpA, A-type dye-decolorizing peroxidase from Streptomyces lividans (Streptomyces lividans); experiment: AUC; sedimentation velocity, absorbance at 410 nm, 40,000 rpm, 20°C, 50 mM HEPES pH 7.0, 100 mM NaCl, protein 0.75-0.85 μM, c(S) model in SEDFIT
[2] = target: DtpAa, A-type dye-decolorizing peroxidase from Streptomyces lividans (Streptomyces lividans); experiment: as above
[3] = target: DtpB, B-type dye-decolorizing peroxidase from Streptomyces lividans (Streptomyces lividans); experiment: cryo-EM structure; single particle, Titan Krios 300 kV, DtpB ~6 mg/mL with 8 mM CHAPSO, D3 symmetry imposed, 3.02 Å map of the hexamer
[4] = target: DtpB, B-type dye-decolorizing peroxidase from Streptomyces lividans (Streptomyces lividans); experiment: AUC; sedimentation velocity, absorbance at 410 nm, 40,000 rpm, 20°C, 50 mM HEPES pH 7.0, 100 mM NaCl, protein 0.75-0.85 μM, c(S) model in SEDFIT
[5] = target: DtpB, B-type dye-decolorizing peroxidase from Streptomyces lividans (Streptomyces lividans); experiment: cryo-EM structure; single particle, Talos Arctica 200 kV, DtpB ~6 mg/mL with 8 mM CHAPSO, C1 symmetry, low resolution maps of quasi-hexamer (14.5 Å) and dodecamer (13.4 Å)

DtpA, A-type dye-decolorizing peroxidase from Streptomyces lividans (enzyme)
proportion of the sedimenting species (ratio), species 1, dimer [1]: 76
proportion of the sedimenting species (ratio), species 2, tetramer [1]: 13
stoichiometry N [1]: 2 and 4

DtpAa, A-type dye-decolorizing peroxidase from Streptomyces lividans (enzyme)
stoichiometry N [2]: 2

DtpB, B-type dye-decolorizing peroxidase from Streptomyces lividans (enzyme)
stoichiometry N [3]: 6
proportion of the sedimenting species (ratio), species 1, dimer [4]: 2.5
proportion of the sedimenting species (ratio), species 2, hexamer [4]: 82
proportion of the sedimenting species (ratio), species 3, dodecamer [4]: 10
stoichiometry N [5]: 12

Reference: article PMC11168072
